Columns and labels:
HLA-B*1513 (human) = test: Luminex beads; MAb 1/1600; competitor rHLA-E
HLA-B*4002 (human) = HLA-B*4002 (human) (UniProt P01889); test: Luminex beads; MAb 1/1600; competitor rHLA-E
HLA-Cw*1402 (human) = HLA-Cw*1402 (human) (UniProt P10321); test: Luminex beads; MAb 1/1600; competitor rHLA-E
HLA-Cw*1802 (human) [1] = target: HLA-Cw*1802 (human) (UniProt P10321); test: Luminex beads; MAb 1/1600; competitor rHLA-E
HLA-B*5101 (human) = test: Luminex beads; MAb 1/1600; competitor rHLA-E
HLA-Cw*0702 (human) [2] = target: HLA-Cw*0702 (human) (UniProt P10321); test: Luminex beads; MAb 1/1600; competitor rHLA-E
HLA-Cw*1802 (human) [3] = target: HLA-Cw*1802 (human) (UniProt P10321); test: Luminex beads; MAb 1/400; PBS only
HLA-Cw*0801 (human) [4] = target: HLA-Cw*0801 (human) (UniProt P10321); test: Luminex beads; MAb 1/400; PBS only
HLA-Cw*0302 (human) [5] = target: HLA-Cw*0302 (human) (UniProt P10321); test: Luminex beads; MAb 1/400; PBS only
HLA-Cw*1701 (human) = test: Luminex beads; MAb 1/400; competitor IgG-free serum
HLA-B*4006 (human) = HLA-B*4006 (human) (UniProt P01889); test: as above
HLA-Cw*1802 (human) [6] = target: HLA-Cw*1802 (human) (UniProt P10321); test: as above
HLA-Cw*0801 (human) [7] = target: HLA-Cw*0801 (human) (UniProt P10321); test: as above
HLA-B*4403 (human) = test: Luminex beads; MAb 1/200; competitor rHLA-E
HLA-B*5201 (human) = test: Luminex beads; MAb 1/200; competitor rHLA-E
HLA-Cw*1502 (human) = test: Luminex beads; MAb 1/200; competitor rHLA-E
HLA-B*4402 (human) = test: Luminex beads; MAb 1/200; competitor rHLA-E
HLA-B*4701 (human) = test: Luminex beads; MAb 1/200; competitor rHLA-E
HLA-Cw*0302 (human) [8] = target: HLA-Cw*0302 (human) (UniProt P10321); test: Luminex beads; MAb 1/200; competitor rHLA-E
HLA-Cw*0702 (human) [9] = target: HLA-Cw*0702 (human) (UniProt P10321); test: Luminex beads; MAb 1/200; competitor rHLA-E
HLA-Cw*0501 (human) = test: Luminex beads; MAb 1/200; competitor rHLA-E
HLA-A*2501 (A25) (human) = test: Luminex single-antigen beads; MEM-E/02 1/600; serum Mi127 1/100
HLA-A*3002 (A30) (human) = HLA-A*3002 (A30) (human) (UniProt P04439); test: as above
HLA-B*2708 (B27) (human) = HLA-B*2708 (B27) (human) (UniProt P01889); test: as above
HLA-B*5102 (B51) (human) = test: as above
[10] = target: HLA-Cw*1203 (Cw12) (human) (UniProt P10321); test: as above
[11] = target: HLA-Cw*1502 (Cw15) (human); test: as above
[12] = target: HLA-Cw*0801 (Cw8) (human) (UniProt P10321); test: as above
HLA-Cw*0304 (human) = test: as above
HLA-B*0801 (B8) (human) = HLA-B*0801 (B8) (human) (UniProt P01889); test: as above
HLA-B*5901 (B59) (human) = test: as above
HLA-A*2901 (A29) (human) = HLA-A*2901 (A29) (human) (UniProt P04439); test: as above
[13] = target: HLA-Cw*0401 (Cw4) (human); test: as above
HLA-B*1301 (B13) (human) = test: as above
[14] = target: HLA-Cw*1701 (Cw17) (human); test: as above
HLA-B*5703 (B57) (human) = test: as above
HLA-B*1513 (B77) (human) = test: as above
HLA-A*3201 (A32) (human) = test: as above
[15] = target: HLA-Cw*1802 (Cw18) (human) (UniProt P10321); test: as above
HLA-A*2403 (A24) (human) = test: as above

murine monoclonal antibody (MAb) MEM-E/02
MFI (HLA-B*1513 (human)): 246 MFI
MFI (HLA-B*4002 (human)): 196 MFI
MFI (HLA-Cw*1402 (human)): 48 MFI
MFI (HLA-Cw*1802 (human) [1]): 30 MFI
MFI (HLA-B*5101 (human)): 99 MFI
MFI (HLA-Cw*0702 (human) [2]): 88 MFI
MFI (HLA-Cw*1802 (human) [3]): 7040 MFI
MFI (HLA-Cw*0801 (human) [4]): 3340 MFI
MFI (HLA-Cw*0302 (human) [5]): 1360 MFI
MFI (HLA-Cw*1701 (human)): 1360 MFI
MFI (HLA-B*4006 (human)): 5550 MFI
MFI (HLA-Cw*1802 (human) [6]): 7220 MFI
MFI (HLA-Cw*0801 (human) [7]): 3530 MFI
MFI (HLA-B*4403 (human)): 75 MFI
MFI (HLA-B*5201 (human)): 87 MFI
MFI (HLA-Cw*1502 (human)): 86 MFI
MFI (HLA-B*4402 (human)): 66 MFI
MFI (HLA-B*4701 (human)): 67 MFI
MFI (HLA-Cw*0302 (human) [8]): 137 MFI
MFI (HLA-Cw*0702 (human) [9]): 137 MFI
MFI (HLA-Cw*0501 (human)): 147 MFI

murine monoclonal antibody MAb MEM-E/02
% inhibition (HLA-A*2501 (A25) (human)): 36%
MFI (HLA-A*3002 (A30) (human)): < 500 MFI
MFI (HLA-B*2708 (B27) (human)): 2430 MFI
MFI (HLA-B*5102 (B51) (human)): 2520 MFI
MFI [10]: < 500 MFI
MFI [11]: < 500 MFI
MFI [12]: < 500 MFI
MFI (HLA-Cw*0304 (human)): < 500 MFI
MFI (HLA-B*0801 (B8) (human)): < 500 MFI
% inhibition (HLA-B*5901 (B59) (human)): 8%
MFI (HLA-B*5901 (B59) (human)): 848 MFI
MFI (HLA-A*2901 (A29) (human)): < 500 MFI
MFI [13]: < 500 MFI
MFI (HLA-B*1301 (B13) (human)): < 500 MFI
MFI [14]: < 500 MFI
MFI (HLA-B*5703 (B57) (human)): 917 MFI
MFI (HLA-B*1513 (B77) (human)): < 500 MFI
MFI (HLA-A*3201 (A32) (human)): < 500 MFI
MFI [15]: < 500 MFI
% inhibition (HLA-A*2403 (A24) (human)): 36%

From patent publication US20120171195A1
